Reference: patent US11058644 (WISCONSIN ALUMNI RESEARCH FOUNDATION, dated 2021)

Target: T1, epidermal growth factor receptor (EGFR) (UniProt P00533 25-1210, limits assumed)
T1 construct: whole, on cells; Endogenous receptor on MDA-MB-468 cells
Assay: blocking of Cy5-NP uptake on MDA-MB-468 cells by 2 uM free GE11, fluorescence microscopy
Protocol: Cellular Uptake. The cellular uptake behaviors of the NPs in MDA-MB-468 TNBC cell lines were analyzed using a fluorescence microscope based on the Cy5 dye conjugated on the NPs. Cells were seeded (1×10^5 cells/ml) onto 8-well high-optical-quality plates and grown overnight. Cells were treated with either non-targeted NPs, targeted NPs, or targeted NPs with free GE11 peptide (2 µM; blocking assay) at an NP concentration of 100 µg/ml. After 2 h incubation, cells were washed with PBS twice, fixed with 4% PFA, and stained with DAPI for 4 h. Then the cells were mounted with Prolong Gold anti-fade reagent. The cellular uptake was observed using a fluorescence microscope (Nikon, Melville, N.Y.). Digital monochromatic images were acquired using NIS-Elements BR Software.
In Vitro Cellular Uptake. EGFR is overexpressed in many common types of cancer. Here, an EGFR targeting peptide, GE11, was used as an active-tumor-targeting ligand to enhance cellular uptake. MDA-MB-468, a TNBC cell line that overexpresses EGFR, was used as the model cell line. Cells were incubated with either non-targeted (i.e., NPs without GE11 conjugation) or targeted (i.e., GE11 conjugated) NPs for 2 h. Cells without any treatment were used as a negative control. Cy5 was conjugated onto the NPs. Fluorescence imaging analysis was performed to compare cellular uptake. […]

B1: GE11 peptide (YHWYGYTPQNVIGGGGC) (peptide)
peptide: YHWYGYTPQNVIGGGGC
notes: also called free GE11; EGFR targeting peptide
B1: binds.
